Laboratory results published in publication PMC3713010, “Sox2 Transcriptionally Regulates Pqbp1, an Intellectual Disability-Microcephaly Causative Gene, in Neural Stem Progenitor Cells”.

T1: Brn2 DNA-binding domain (BD-Brn2) (Mus musculus (B6), UniProt P31360 336-435)
T1 sequence: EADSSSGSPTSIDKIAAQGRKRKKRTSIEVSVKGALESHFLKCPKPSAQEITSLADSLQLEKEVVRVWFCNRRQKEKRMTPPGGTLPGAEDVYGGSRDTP

T2: Oct6 DNA-binding domain (BD-Oct6) (Mus musculus (B6), UniProt P21952 317-416)
T2 sequence: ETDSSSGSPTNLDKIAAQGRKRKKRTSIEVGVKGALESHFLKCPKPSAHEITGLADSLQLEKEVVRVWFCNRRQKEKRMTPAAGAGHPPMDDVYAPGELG

B1: 57 (dsDNA)
DNA 1: GGGGGCCTAAGATTCTTAATCTGACATTGTAGTCCCTACCCCC
DNA 2: GGGGGTAGGGACTACAATGTCAGATTAAGAATCTTAGGCCCCC
B2: 64 (dsDNA)
DNA 1: GGGGGATATATGCACAAACACTCATTTACATAAAATAACCCCC
DNA 2: GGGGGTTATTTTATGTAAATGAGTGTTTGTGCATATATCCCCC
B3: 62 (dsDNA)
DNA 1: GGGGGTTTAAACAATTGTCCCATTCATTATATTGCAACACCCCC
DNA 2: GGGGGTGTTGCAATATAATGAATGGGACAATTGTTTAAACCCCC
B4: 60 (dsDNA)
DNA 1: GGGGGAATTTAATTTTGTCTCTACCTTTCACGCTTCTCCTTTGCATTTTCCCCCC
DNA 2: GGGGGGAAAATGCAAAGGAGAAGCGTGAAAGGTAGAGACAAAATTAAATTCCCCC
B5: 40 (dsDNA)
DNA 1: GGGGGTTTGTCATTTTGTAGTGCTAGGAATTAAACCCATGTCCCCC
DNA 2: GGGGGACATGGGTTTAATTCCTAGCACTACAAAATGACAAACCCCC
B6: 63 (dsDNA)
DNA 1: GGGGGAGAAATCCTCAATTTCCTTATCCACAAAATGGACATTTTCCTAGTACCTCCCCC
DNA 2: GGGGGAGGTACTAGGAAAATGTCCATTTTGTGGATAAGGAAATTGAGGATTTCTCCCCC
B7: 47 (dsDNA)
DNA 1: GGGGGCCACCATCTGTAATGTCCTTGGCACAATAAAACCAACCCCC
DNA 2: GGGGGTTGGTTTTATTGTGCCAAGGACATTACAGATGGTGGCCCCC
B8: 55 (dsDNA)
DNA 1: GGGGGGTAGATTATTTGTCCACCATTCACAAGCACTGAGTTCAATAACCCCCC
DNA 2: GGGGGGTTATTGAACTCAGTGCTTGTGAATGGTGGACAAATAATCTACCCCCC
B9: 53 (dsDNA)
DNA 1: GGGGGTGCTTGTGACAAATCTGTCAATTTCTGGTGGGGGCCCCCC
DNA 2: GGGGGGCCCCCACCAGAAATTGACAGATTTGTCACAAGCACCCCC
B10: 58 (dsDNA)
DNA 1: GGGGGTGAGATGGAGGAAATAAGTCTTATTGTTGTTCTCCCCCCC
DNA 2: GGGGGGGAGAACAACAATAAGACTTATTTCCTCCATCTCACCCCC
B11: 48 (dsDNA)
DNA 1: GGGGGATGAAATGGCTAAATCCTTTTTTTGTTGTTTGTTCCCCC
DNA 2: GGGGGAACAAACAACAAAAAAAGGATTTAGCCATTTCATCCCCC
B12: 42 (dsDNA)
DNA 1: GGGGGGCTTCAGCATTGTGAAATTGAATCATTGCCCCCC
DNA 2: GGGGGGCAATGATTCAATTTCACAATGCTGAAGCCCCCC
B13: 52 (dsDNA)
DNA 1: GGGGGGGGGCAGCACAAATATTTCTGTGAATGTACCCCC
DNA 2: GGGGGTACATTCACAGAAATATTTGTGCTGCCCCCCCCC
B14: 61 (dsDNA)
DNA 1: GGGGGTAAATTTTTCTAATCCTGACAAATCTCTTCACCCCC
DNA 2: GGGGGTGAAGAGATTTGTCAGGATTAGAAAAATTTACCCCC
B15: 56 (dsDNA)
DNA 1: GGGGGACACTTATACAATAATAGTATTTATTAATAGTATCCCCC
DNA 2: GGGGGATACTATTAATAAATACTATTATTGTATAAGTGTCCCCC
B16: 43 (dsDNA)
DNA 1: GGGGGAGGAGTGCTTTGTAAAAATAACTTCTATGTCCCCC
DNA 2: GGGGGACATAGAAGTTATTTTTACAAAGCACTCCTCCCCC
B17: 59 (dsDNA)
DNA 1: GGGGGAGCTTTTAACAATTTAATTTTGTCTCTACCTCCCCC
DNA 2: GGGGGAGGTAGAGACAAAATTAAATTGTTAAAAGCTCCCCC
B18: 50 (dsDNA)
DNA 1: GGGGGTTTGTAAGTTTGTACCATTTGGCCTCAGCCCCCCC
DNA 2: GGGGGGGCTGAGGCCAAATGGTACAAACTTACAAACCCCC
B19: 45 (dsDNA)
DNA 1: GGGGGAAATGTGCTTTATTTCACAAAATCAACAACCCCC
DNA 2: GGGGGTTGTTGATTTTGTGAAATAAAGCACATTTCCCCC
B20: 46 (dsDNA)
DNA 1: GGGGGTTATTTCACAAAATCAACAAATCAAAAAGCCCCC
DNA 2: GGGGGCTTTTTGATTTGTTGATTTTGTGAAATAACCCCC
B21: 54 (dsDNA)
DNA 1: GGGGGAGGTGTTAAGTGTGGAGTCGTGAGAACAACAATCCAGATAGCCCCC
DNA 2: GGGGGCTATCTGGATTGTTGTTCTCACGACTCCACACTTAACACCTCCCCC
B22: 44 (dsDNA)
DNA 1: GGGGGAAACCATGGGGGGTGGGCTGTAAACACAAAAAGGATTCCCCCC
DNA 2: GGGGGGAATCCTTTTTGTGTTTACAGCCCACCCCCCATGGTTTCCCCC
B23: 51 (dsDNA)
DNA 1: GGGGGGTCCGGCTTTTGTTGATTTGCTTATCTATCCCCC
DNA 2: GGGGGATAGATAAGCAAATCAACAAAAGCCGGACCCCCC
B24: 41 (dsDNA)
DNA 1: GGGGGTTTGGAAAACAAAACATTAACCAAAATTTTCCCCC
DNA 2: GGGGGAAAATTTTGGTTAATGTTTTGTTTTCCAAACCCCC
B25: 49 (dsDNA)
DNA 1: GGGGGCTCTCTGATTTGTGAGTATTGACAGAGAATCCCCC
DNA 2: GGGGGATTCTCTGTCAATACTCACAAATCAGAGAGCCCCC

The binders below were run against Pax6 DNA-binding domain (BD-Pax6) (Mus musculus (B6), UniProt P63015 190-289) (assay: EMSA; 10% glycerol, 20 mM HEPES pH 7.8, 45 mM KCl, 10 mM NaCl, 1 mM EDTA, 1 mM DTT, 0.2 ug/uL BSA, 0.1% NP-40, 50 ng poly-dIdC; 20 ng each GST protein; room temperature 30 min (heterodimers 4 C); 6% PAGE 0.25x TBE). Conditions: protein: recombinant; tags: GST (N-terminal, pGEX-6P-1); label: 32P-dCTP fill-in of the 5' (dG)5 overhangs of both strands (Methods; control probes are given with GGG).
Pax6 DNA-binding domain (BD-Pax6), sequence (P63015 190-289): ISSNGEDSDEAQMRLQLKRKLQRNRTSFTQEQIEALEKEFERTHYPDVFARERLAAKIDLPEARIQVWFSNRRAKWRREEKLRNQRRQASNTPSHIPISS
How it was run: (§1)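 DNA binding of transcription factor DNA-binding domains to candidate cis-elements was read from band radioactivity in the expected shift region. The GST-tagged domains came from E. coli BL21 via glutathione-sepharose; probes were annealed oligonucleotides labelled with 32P-dCTP. Each assay used 20 ng protein, 40,000–50,000 cpm probe and 50 ng poly-dIdC for 30 min at room temperature, followed by 6% polyacrylamide electrophoresis in 0.25×TBE at 4°C.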

| Binder | binding result |
| --- | --- |
| B1 | binds |
| B2 | binds |
| B3 | binds |
| B4 | binds |
| B5 | binds |
| B6 | binds |
| B7 | no binding |
| B8 | no binding |
| B9 | no binding |
| B10 | no binding |
| B11 | binds |
| B12 | binds |
| B13 | no binding |
| B14 | binds |
| B15 | binds |
| B16 | no binding |
| B17 | binds |
| B18 | no binding |
| B19 | binds |
| B20 | binds |
| B21 | no binding |
| B22 | no binding |
| B23 | binds |
| B24 | binds |
| B25 | no binding |

These binders were tested against T1, Brn2 DNA-binding domain (BD-Brn2) in the same assay as above. Conditions: protein: recombinant; tags: GST (N-terminal, pGEX-6P-1); label: 32P-dCTP fill-in of the 5' (dG)5 overhangs of both strands (Methods; control probes are given with GGG).
How it was run: as §1

| Binder | binding result |
| --- | --- |
| B1 | no binding |
| B2 | binds |
| B3 | binds |
| B4 | binds |
| B5 | binds |
| B6 | no binding |
| B7 | no binding |
| B8 | no binding |
| B9 | no binding |
| B10 | no binding |
| B11 | no binding |
| B12 | no binding |
| B13 | no binding |
| B14 | no binding |
| B15 | binds |
| B16 | no binding |
| B17 | binds |
| B18 | no binding |
| B19 | no binding |
| B20 | no binding |
| B21 | no binding |
| B22 | no binding |
| B23 | no binding |
| B24 | no binding |
| B25 | no binding |

The binders below were run against T2, Oct6 DNA-binding domain (BD-Oct6) in the same assay as above. Conditions: protein: recombinant; tags: GST (N-terminal, pGEX-6P-1); label: 32P-dCTP fill-in of the 5' (dG)5 overhangs of both strands (Methods; control probes are given with GGG).
How it was run: as §1

| Binder | binding result |
| --- | --- |
| B1 | binds |
| B2 | binds |
| B3 | binds |
| B4 | binds |
| B5 | binds |
| B6 | binds |
| B7 | binds |
| B8 | binds |
| B9 | no binding |
| B10 | binds |
| B11 | no binding |
| B12 | no binding |
| B13 | no binding |
| B14 | binds |
| B15 | binds |
| B16 | no binding |
| B17 | binds |
| B18 | no binding |
| B19 | binds |
| B20 | binds |
| B21 | binds |
| B22 | no binding |
| B23 | no binding |
| B24 | binds |
| B25 | no binding |
